Assay results reported in patent US20260242735A1 (UNIVERSIT T BASEL, published 2026).

Assays:
Experiment in all cases: flow cytometry, transfected cells
human CD33 P48G = human CD33 P48G (human, UniProt P20138 18-364)
human CD33 Y50D = human CD33 Y50D (human, UniProt P20138 18-364)
human CD33 K52D = human CD33 K52D (human, UniProt P20138 18-364)
human CD33 P48Y = human CD33 P48Y (human, UniProt P20138 18-364)
human CD33 P48Q = human CD33 P48Q (human, UniProt P20138 18-364)
human CD33 Y50V = human CD33 Y50V (human, UniProt P20138 18-364)
Sequence of human CD33 Y50V (P20138 18-364 Y50V limits assumed): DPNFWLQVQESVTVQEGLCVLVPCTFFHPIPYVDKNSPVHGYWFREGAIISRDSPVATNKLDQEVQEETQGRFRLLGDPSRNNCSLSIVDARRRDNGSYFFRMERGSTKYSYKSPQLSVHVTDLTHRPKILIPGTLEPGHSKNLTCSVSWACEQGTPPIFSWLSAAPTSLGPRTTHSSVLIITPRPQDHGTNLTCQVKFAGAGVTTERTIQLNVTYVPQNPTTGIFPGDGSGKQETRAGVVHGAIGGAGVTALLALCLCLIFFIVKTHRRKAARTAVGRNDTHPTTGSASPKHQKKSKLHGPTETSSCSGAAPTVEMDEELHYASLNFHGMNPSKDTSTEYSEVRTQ

human CD33 Y49P = human CD33 Y49P (human, UniProt P20138 18-364)
Sequence of human CD33 Y49P (P20138 18-364 Y49P limits assumed): as the sequence (P20138 18-364 Y50V limits assumed) above, with Y32P, V33Y counted along it

human CD33 P48D = human CD33 P48D (human, UniProt P20138 18-364)
Sequence of human CD33 P48D (P20138 18-364 P48D limits assumed): as the sequence (P20138 18-364 Y50V limits assumed) above, with P31D, V33Y counted along it

human CD33 P48N = human CD33 P48N (human, UniProt P20138 18-364)
Sequence of human CD33 P48N (P20138 18-364 P48N limits assumed): as the sequence (P20138 18-364 Y50V limits assumed) above, with P31N, V33Y counted along it

human CD33 Y50Q = human CD33 Y50Q (human, UniProt P20138 18-364)
Sequence of human CD33 Y50Q (P20138 18-364 Y50Q limits assumed): as the sequence (P20138 18-364 Y50V limits assumed) above, with V33Q counted along it

human CD33 I47P = human CD33 I47P (human, UniProt P20138 18-364)
Sequence of human CD33 I47P (P20138 18-364 I47P limits assumed): as the sequence (P20138 18-364 Y50V limits assumed) above, with I30P, V33Y counted along it

human CD33 P48F = human CD33 P48F (human, UniProt P20138 18-364)
Sequence of human CD33 P48F (P20138 18-364 P48F limits assumed): as the sequence (P20138 18-364 Y50V limits assumed) above, with P31F, V33Y counted along it

human CD33 W22S = human CD33 W22S (human, UniProt P20138 18-364)
Sequence of human CD33 W22S (P20138 18-364 W22S limits assumed): as the sequence (P20138 18-364 Y50V limits assumed) above, with W5S, V33Y counted along it

human CD33 W22L = human CD33 W22L (human, UniProt P20138 18-364)
Sequence of human CD33 W22L (P20138 18-364 W22L limits assumed): as the sequence (P20138 18-364 Y50V limits assumed) above, with W5L, V33Y counted along it

human CD33 W22G = human CD33 W22G (human, UniProt P20138 18-364)
Sequence of human CD33 W22G (P20138 18-364 W22G limits assumed): as the sequence (P20138 18-364 Y50V limits assumed) above, with W5G, V33Y counted along it

human CD33 W22N = human CD33 W22N (human, UniProt P20138 18-364)
Sequence of human CD33 W22N (P20138 18-364 W22N limits assumed): as the sequence (P20138 18-364 Y50V limits assumed) above, with W5N, V33Y counted along it

human CD33 P46F = human CD33 P46F (human, UniProt P20138 18-364)
Sequence of human CD33 P46F (P20138 18-364 P46F limits assumed): as the sequence (P20138 18-364 Y50V limits assumed) above, with P29F, V33Y counted along it

human CD33 N20D = human CD33 N20D (human, UniProt P20138 18-364)
Sequence of human CD33 N20D (P20138 18-364 N20D limits assumed): as the sequence (P20138 18-364 Y50V limits assumed) above, with N3D, V33Y counted along it

human CD33 N20T = human CD33 N20T (human, UniProt P20138 18-364)
Sequence of human CD33 N20T (P20138 18-364 N20T limits assumed): as the sequence (P20138 18-364 Y50V limits assumed) above, with N3T, V33Y counted along it

human CD33 N20V = human CD33 N20V (human, UniProt P20138 18-364)
Sequence of human CD33 N20V (P20138 18-364 N20V limits assumed): as the sequence (P20138 18-364 Y50V limits assumed) above, with N3V, V33Y counted along it

human CD33 N20W = human CD33 N20W (human, UniProt P20138 18-364)
Sequence of human CD33 N20W (P20138 18-364 N20W limits assumed): as the sequence (P20138 18-364 Y50V limits assumed) above, with N3W, V33Y counted along it

human CD33 P19D = human CD33 P19D (human, UniProt P20138 18-364)
Sequence of human CD33 P19D (P20138 18-364 P19D limits assumed): as the sequence (P20138 18-364 Y50V limits assumed) above, with P2D, V33Y counted along it

human CD33 N20K = human CD33 N20K (human, UniProt P20138 18-364)
Sequence of human CD33 N20K (P20138 18-364 N20K limits assumed): as the sequence (P20138 18-364 Y50V limits assumed) above, with N3K, V33Y counted along it

human CD33 P46H = human CD33 P46H (human, UniProt P20138 18-364)
Sequence of human CD33 P46H (P20138 18-364 P46H limits assumed): as the sequence (P20138 18-364 Y50V limits assumed) above, with P29H, V33Y counted along it

human CD33 P46Y = human CD33 P46Y (human, UniProt P20138 18-364)
Sequence of human CD33 P46Y (P20138 18-364 P46Y limits assumed): as the sequence (P20138 18-364 Y50V limits assumed) above, with P29Y, V33Y counted along it

human CD33 F21I = human CD33 F21I (human, UniProt P20138 18-364)
Sequence of human CD33 F21I (P20138 18-364 F21I limits assumed): as the sequence (P20138 18-364 Y50V limits assumed) above, with F4I, V33Y counted along it

human CD33 P46D = human CD33 P46D (human, UniProt P20138 18-364)
Sequence of human CD33 P46D (P20138 18-364 P46D limits assumed): as the sequence (P20138 18-364 Y50V limits assumed) above, with P29D, V33Y counted along it

human CD33 F21S = human CD33 F21S (human, UniProt P20138 18-364)
Sequence of human CD33 F21S (P20138 18-364 F21S limits assumed): as the sequence (P20138 18-364 Y50V limits assumed) above, with F4S, V33Y counted along it

human CD33 N20E = human CD33 N20E (human, UniProt P20138 18-364)
Sequence of human CD33 N20E (P20138 18-364 N20E limits assumed): as the sequence (P20138 18-364 Y50V limits assumed) above, with N3E, V33Y counted along it

human CD33 N20G = human CD33 N20G (human, UniProt P20138 18-364)
Sequence of human CD33 N20G (P20138 18-364 N20G limits assumed): as the sequence (P20138 18-364 Y50V limits assumed) above, with N3G, V33Y counted along it

human CD33 F21L = human CD33 F21L (human, UniProt P20138 18-364)
Sequence of human CD33 F21L (P20138 18-364 F21L limits assumed): as the sequence (P20138 18-364 Y50V limits assumed) above, with F4L, V33Y counted along it

human CD33 N20Y = human CD33 N20Y (human, UniProt P20138 18-364)
Sequence of human CD33 N20Y (P20138 18-364 N20Y limits assumed): as the sequence (P20138 18-364 Y50V limits assumed) above, with N3Y, V33Y counted along it

Measured: binding result

Sequence of human CD33 P48Q (P20138 18-364 P48Q limits assumed): as the sequence (P20138 18-364 Y50V limits assumed) above, with P31Q, V33Y counted along it
Sequence of human CD33 P48Y (P20138 18-364 P48Y limits assumed): as the sequence (P20138 18-364 Y50V limits assumed) above, with P31Y, V33Y counted along it
Sequence of human CD33 P48G (P20138 18-364 P48G limits assumed): as the sequence (P20138 18-364 Y50V limits assumed) above, with P31G, V33Y counted along it
Sequence of human CD33 Y50D (P20138 18-364 Y50D limits assumed): as the sequence (P20138 18-364 Y50V limits assumed) above, with V33D counted along it
Sequence of human CD33 K52D (P20138 18-364 K52D limits assumed): as the sequence (P20138 18-364 Y50V limits assumed) above, with V33Y, K35D counted along it

B1: Refmab #5 (antibody, human IgG1, V domains shown)
VH: QVQLVQSGAEVKKPGASVKVSCKASGYTFTNYDINWVRQAPGQGLEWIGWIYPGDGSTKYNEKFKAKATLTADTSTSTAYMELRSLRSDDTAVYYCASGYEDAMDYWGQGTTVTVSS
VL: DIQMTQSPSSLSASVGDRVTINCKASQDINSYLSWFQQKPGKAPKTLIYRANRLVDGVPSRFSGSGSGQDYTLTISSLQPEDFATYYCLQYDEFPLTFGGGTKVEIK
no binding (tested: below 20%): human CD33 P48G | human CD33 Y50D | human CD33 K52D | human CD33 P48Y | human CD33 P48Q | human CD33 Y50V | human CD33 Y49P | human CD33 P48D | human CD33 P48N | human CD33 Y50Q | human CD33 I47P | human CD33 P48F

B2: Refmab #6 (antibody, human IgG1, V domains shown)
VH: QVQLQQPGAEVVKPGASVKMSCKASGYTFTSYYIHWIKQTPGQGLEWVGVIYPGNDDISYNQKFQGKATLTADKSSTTAYMQLSSLTSEDSAVYYCAREVRLRYFDVWGQGTTVTVSS
VL: EIVLTQSPGSLAVSPGERVTMSCKSSQSVFFSSSQKNYLAWYQQIPGQSPRLLIYWASTRESGVPDRFTGSGSGTDFTLTISSVQPEDLAIYYCHQYLSSRTFGQGTKLEIK
no binding (tested: below 20%): human CD33 W22S | human CD33 W22L | human CD33 W22G | human CD33 W22N

B3: Refmab #3 (antibody, human IgG1, V domains shown)
VH: QVQLVQSGAEVKKPGSSVKVSCKASGYTFTDYNMHWVRQAPGQGLEWIGYIYPYNGGTGYNQKFKSKATITADESTNTAYMELSSLRSEDTAVYYCARGRPAMDYWGQGTLVTVSS
VL: DIQMTQSPSSLSASVGDRVTITCRASESVDNYGISFMNWFQQKPGKAPKLLIYAASNQGSGVPSRFSGSGSGTDFTLTISSLQPDDFATYYCQQSKEVPWTFGQGTKVEIK
no binding (tested: below 20%): human CD33 P46F | human CD33 N20D | human CD33 N20T | human CD33 N20V | human CD33 N20W | human CD33 P19D | human CD33 W22S | human CD33 N20K | human CD33 P46H | human CD33 P46Y | human CD33 W22L | human CD33 F21I | human CD33 P46D | human CD33 F21S | human CD33 W22G | human CD33 I47P | human CD33 N20E | human CD33 N20G | human CD33 F21L | human CD33 W22N | human CD33 N20Y

B4: Refmab #1 (antibody, human IgG1, V domains shown)
VH: EVQLVQSGAEVKKPGSSVKVSCKASGYTITDSNIHWVRQAPGQSLEWIGYIYPYNGGTDYNQKFKNRATLTVDNPTNTAYMELSSLRSEDTAFYYCVNGNPWLAYWGQGTLVTVSS
VL: DIQLTQSPSTLSASVGDRVTITCRASESLDNYGIRFLTWFQQKPGKAPKLLMYAASNQGSGVPSRFSGSGSGTEFTLTISSLQPDDFATYYCQQTKEVPWSFGQGTKVEVK
notes: also called hP67.6; Absolute Antibody Cat. No. Ab00283-10.0
no binding (tested: below 20%): human CD33 P46F | human CD33 N20D | human CD33 N20T | human CD33 N20V | human CD33 N20W | human CD33 P19D | human CD33 N20K | human CD33 P46H | human CD33 P46Y | human CD33 F21I | human CD33 P46D | human CD33 F21S | human CD33 N20E | human CD33 N20G | human CD33 F21L | human CD33 N20Y
